# Where a SMILES comes first, the peptide text is derived from it. The star is where a group is joined. Cbz = O=C(OCc1ccccc1)*
# Columns and labels:
# [1] = system: full-length mouse Nrf1 and luciferase fusion protein (mNrf1-Luc); test: Luciferase activity in Hepa1 cell line stably expressing mouse Nrf1-luciferase fusion protein (Nrf1 stabilization assay); format: cell-based; settings: mNrf1-Luc stable Hepa1 cell lines, 10 μM MG-132, 4 hours, vs DMSO
# Experimental: (§1) Cloning of mouse Nrf1 cDNA was performed using a method known in the art (Zhang et al., Biochem. J. 399: 373-385. (2006)). An expression vector of full-length mouse Nrf1 and luciferase fusion protein (mNrf1-Luc) was prepared by ligating the sequence, which was amplified by the following primers: 5′-TAATACGACTCACTATAGGG-3′ (SEQ ID NO: 21) and 5′-CTTTATGTTTTTGGCGTCTTCCTTCCTCCGGTCCTTTG-3′ (SEQ ID NO: 22) using mouse Nrf1 cDNA sequence as a template, and the sequence, which was amplified by the following primers: 5′-CAAAGGACCGGAGGAAGGAAGACGCCAAAAACATAAAG-3′ (SEQ ID NO: 23) and 5′-GACTCTAGAATTACACGGCG-3′ (SEQ ID NO: 24) using pGL3-basic vector (Promega) as a template; and cloning the resulting sequence at a KpnI/XbaI site of pcDNA3.1/V5His B plasmid (Invitrogen). […]
# (§2) Cells of each cell line were seeded at a density of 5×10^4 cells per well in a 24-well plate, cultured overnight and treated with a solvent control, DMSO or 10 μM MG-132 (Peptide Institute) for 4 hours. Thereafter, the firefly luciferase activity was measured using dual luciferase kit (Promega) and a luminometer (Berthold).
# [2] = system: CNC-bZip domain-deficient mouse Nrf1 and luciferase fusion protein (mNrf1ΔCNC-bZip-Luc); test: Luciferase activity in Hepa1 cell line stably expressing CNC-bZip domain-deficient mouse Nrf1-luciferase fusion protein; format: cell-based; settings: mNrf1ΔCNC-bZip-Luc stable Hepa1 cell lines, 10 μM MG-132, 4 hours, vs DMSO
# Experimental: as §1, §2
# [3] = target: T1, Nrf1 CT (G341-K741)/MafG 1-123 heterodimer (Mus musculus, UniProt Q61985;O54790 Q61985:341-741,O54790:1-123); test: EMSA; room temperature 20 min; probe boundaries in FIG. 6E may differ from the reporter insert; settings: tags: 6xHis on each; E. coli; label: 5' biotin (EMSA)
# Experimental: (§3) (A to C) Hepa1 cells were cotransfected with luciferase reporter constructs containing the AREs from the Lipin1 promoter (A), Lipin1 intron (B) or PGC-1β intron (C) together with or without the Nrf1 expression vector. The average values±S.D are shown, n=3. The vertical axis indicates relative luciferase units (RLU). The firefly luciferase activity in the absence of effector plasmids is set to 1. (D) The EMSA analysis was performed with biotin-labeled probes containing the AREs from the Nqo1 promoter, Lipin1 promoter, Lipin1 intron and PGC-1β intron regions. Recombinant MafG and/or Nrf1 or Nrf2 proteins were incubated with the probes, and the protein-DNA complexes and free probes were resolved by electrophoresis. (E) The sequences of the wild-type (W) and mutant (M) oligonucleotides are shown. The mutation sites of the sequences are underlined. (F) Nrf2 and MafG proteins were incubated in combination in the presence or absence of a 200-fold molar excess of unlabeled competitor DNA. The open arrowheads indicate Nrf1/MafG heterodimer complexes, the solid arrowheads indicate Nrf2-MafG heterodimer complexes and the arrows indicate MafG homodimer complexes.
# (§4) EMSA was performed in accordance with a method known in the art. […]
# MafG 1-123 homodimer = MafG 1-123 homodimer (UniProt O54790 O54790:1-123); test: EMSA; MafG homodimer; MARE-like site; settings: tags: 6xHis; E. coli; chain copies: 2 (stated); label: 5' biotin (EMSA)
# Experimental: as §3, §4
# [4] = target: T1, Nrf1 CT (G341-K741)/MafG 1-123 …; test: EMSA; slightly weaker than for Nqo1 ARE; room temperature 20 min; probe boundaries in FIG. 6E may differ from the reporter insert; settings: tags: 6xHis on each; E. coli; label: 5' biotin (EMSA)
# Experimental: as §3, §4
# T1 sequence (Q61985 341-741, chain 1 of 2): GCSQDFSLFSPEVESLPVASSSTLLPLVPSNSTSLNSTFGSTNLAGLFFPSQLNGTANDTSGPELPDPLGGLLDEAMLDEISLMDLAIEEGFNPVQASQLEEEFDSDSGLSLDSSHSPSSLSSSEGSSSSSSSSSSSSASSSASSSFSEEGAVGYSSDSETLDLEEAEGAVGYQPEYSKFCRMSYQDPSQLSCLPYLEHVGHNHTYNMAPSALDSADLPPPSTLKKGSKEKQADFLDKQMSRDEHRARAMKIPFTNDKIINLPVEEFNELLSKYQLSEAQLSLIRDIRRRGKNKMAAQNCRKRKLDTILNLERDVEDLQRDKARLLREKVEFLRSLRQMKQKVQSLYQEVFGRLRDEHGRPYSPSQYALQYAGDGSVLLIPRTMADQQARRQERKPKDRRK
# T1 sequence (O54790 1-123, chain 2 of 2): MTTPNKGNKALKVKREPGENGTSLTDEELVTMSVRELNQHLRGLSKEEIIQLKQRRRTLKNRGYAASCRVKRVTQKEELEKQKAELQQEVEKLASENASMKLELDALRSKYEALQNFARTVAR
# Chain of MafG 1-123 homodimer (O54790 1-123, one chain of several): as the sequence (O54790 1-123, chain 2 of 2) above
molecule,measurement,setting,value
CC(C)C[C@@H](C=O)NC(=O)[C@H](CC(C)C)NC(=O)[C@H](CC(C)C)NC(=O)OCc1ccccc1 [MG-132] (Cbz-Leu-Leu-Leu-aldehyde),luciferase activity compared to solvent,[1],drastic increase of luciferase activity
same,luciferase activity compared to solvent,[2],drastic increase of luciferase activity
Lipin1 intron ARE (dsDNA) DNA 1: CACACCCTGCCCAGAGGCACACTTGCTGAGTCAGCACCCCGG DNA 2: CCGGGGTGCTGACTCAGCAAGTGTGCCTCTGGGCAGGGTGTG,binding result,[3],binds
same,binding result,MafG 1-123 homodimer,binds
PGC-1beta intron ARE (dsDNA) DNA 1: TTGATAGTGAGGGGAACATGCTGACTCAGCAGCTCCGAATAA DNA 2: TTATTCGGAGCTGCTGAGTCAGCATGTTCCCCTCACTATCAA,binding result,[3],binds
same,binding result,MafG 1-123 homodimer,binds
Lipin1 promoter ARE (dsDNA) DNA 1: ACGCTCCTGCCGCTGAGCTGTGACTCAGCCAGAGAACTGAG DNA 2: CTCAGTTCTCTGGCTGAGTCACAGCTCAGCGGCAGGAGCGT,binding result,[4],binds

# Reference: patent publication US20140364335A1, “METHOD FOR SCREENING FOR NRF1 REGULATOR” (Mochida Pharmaceutical Co., Ltd., priority 2012, published 2014)
